Test results reported in patent publication US20180155451A1 (published 2018).

B1: GpH7-A5/GpH7-B3 variant S298_02A/GpL16-k0 (antibody, human IgG1, kappa)
heavy 1: not shown
heavy 2: not shown
light: DIVMTQSPLSLPVTPGEPASISCQASESLVHSNRNTYLHWYLQKPGQSPQLLIYKVSNRFSGVPDRFSGSGSGTDFTLKISRVEAEDVGVYYCSQNTHVPPTFGQGTKVEIERTVAAPSVFIFPPSDEQLKSGTASVVCLLNNFYPREAKVQWKVDNALQSGNSQESVTEQDSKDSTYSLSSTLTLSKADYEKHKVYACEVTHQGLSSPVTKSFNRGEC
notes: position is EU numbering; also called He Ab
B2: GpH7-A5/GpH7-B3 variant K334_07I/GpL16-k0 (antibody, human IgG1, kappa)
heavy 1: not shown
heavy 2: not shown
light: B1 light
notes: as for B1
B3: GpH7-A5/GpH7-B3 variant A327_11K/GpL16-k0 (antibody, human IgG1, kappa)
heavy 1: not shown
heavy 2: not shown
light: B1 light
notes: as for B1
B4: GpH7-A5/GpH7-B3 variant K334_09D/GpL16-k0 (antibody, human IgG1, kappa)
heavy 1: not shown
heavy 2: not shown
light: B1 light
notes: as for B1
B5: GpH7-A5/GpH7-B3 variant E333_02A/GpL16-k0 (antibody, human IgG1, kappa)
heavy 1: not shown
heavy 2: not shown
light: B1 light
notes: as for B1
B6: GpH7-A5/GpH7-B3 variant A330_07I/GpL16-k0 (antibody, human IgG1, kappa)
heavy 1: not shown
heavy 2: not shown
light: B1 light
notes: as for B1
B7: GpH7-A5/GpH7-B3 variant E333_16H/GpL16-k0 (antibody, human IgG1, kappa)
heavy 1: not shown
heavy 2: not shown
light: B1 light
notes: as for B1
B8: GpH7-A5/GpH7-B3 variant I332_12R/GpL16-k0 (antibody, human IgG1, kappa)
heavy 1: not shown
heavy 2: not shown
light: B1 light
notes: as for B1
B9: GpH7-A5/GpH7-B3 variant K334_02A/GpL16-k0 (antibody, human IgG1, kappa)
heavy 1: not shown
heavy 2: not shown
light: B1 light
notes: as for B1
B10: GpH7-A5/GpH7-B3 variant A330_15Y/GpL16-k0 (antibody, human IgG1, kappa)
heavy 1: not shown
heavy 2: not shown
light: B1 light
notes: as for B1
B11: GpH7-A5/GpH7-B3 variant A330_06M/GpL16-k0 (antibody, human IgG1, kappa)
heavy 1: not shown
heavy 2: not shown
light: B1 light
notes: as for B1
B12: GpH7-A5/GpH7-B3 variant A330_10E/GpL16-k0 (antibody, human IgG1, kappa)
heavy 1: not shown
heavy 2: not shown
light: B1 light
notes: as for B1
B13: GpH7-A5/GpH7-B3 variant A330_20W/GpL16-k0 (antibody, human IgG1, kappa)
heavy 1: not shown
heavy 2: not shown
light: B1 light
notes: as for B1
B14: GpH7-A5/GpH7-B3 variant E333_01G/GpL16-k0 (antibody, human IgG1, kappa)
heavy 1: not shown
heavy 2: not shown
light: B1 light
notes: as for B1
B15: GpH7-A5/GpH7-B3 variant A330_03V/GpL16-k0 (antibody, human IgG1, kappa)
heavy 1: not shown
heavy 2: not shown
light: B1 light
notes: as for B1
B16: GpH7-A5/GpH7-B3 variant K334_01G/GpL16-k0 (antibody, human IgG1, kappa)
heavy 1: not shown
heavy 2: not shown
light: B1 light
notes: as for B1
B17: GpH7-A5/GpH7-B3 variant E333_13S/GpL16-k0 (antibody, human IgG1, kappa)
heavy 1: not shown
heavy 2: not shown
light: B1 light
notes: as for B1
B18: GpH7-A5/GpH7-B3 variant K334_05P/GpL16-k0 (antibody, human IgG1, kappa)
heavy 1: not shown
heavy 2: not shown
light: B1 light
notes: as for B1
B19: GpH7-A5/GpH7-B3 variant K334_06M/GpL16-k0 (antibody, human IgG1, kappa)
heavy 1: not shown
heavy 2: not shown
light: B1 light
notes: as for B1
B20: GpH7-A5/GpH7-B3 variant A330_04F/GpL16-k0 (antibody, human IgG1, kappa)
heavy 1: not shown
heavy 2: not shown
light: B1 light
notes: as for B1
B21: GpH7-A5/GpH7-B3 variant I332_10E/GpL16-k0 (antibody, human IgG1, kappa)
heavy 1: not shown
heavy 2: not shown
light: B1 light
notes: as for B1
B22: GpH7-A5/GpH7-B3 variant I332_09D/GpL16-k0 (antibody, human IgG1, kappa)
heavy 1: not shown
heavy 2: not shown
light: B1 light
notes: as for B1
B23: GpH7-A5/GpH7-B3 variant K334_04F/GpL16-k0 (antibody, human IgG1, kappa)
heavy 1: not shown
heavy 2: not shown
light: B1 light
notes: as for B1
B24: GpH7-A5/GpH7-B3 variant K334_08L/GpL16-k0 (antibody, human IgG1, kappa)
heavy 1: not shown
heavy 2: not shown
light: B1 light
notes: as for B1
B25: GpH7-A5/GpH7-B3 variant I332_01G/GpL16-k0 (antibody, human IgG1, kappa)
heavy 1: not shown
heavy 2: not shown
light: B1 light
notes: as for B1
B26: GpH7-A5/GpH7-B3 variant A330_08L/GpL16-k0 (antibody, human IgG1, kappa)
heavy 1: not shown
heavy 2: not shown
light: B1 light
notes: as for B1

Biological target: T1, FcγRIIIa extracellular domain with C-terminal His tag (human, UniProt P08637 17-208)
T1 construct: extracellular domain; also called FcgRIIIa; 3a; not shown: His tag at the C terminus
T1 sequence (P08637 17-208): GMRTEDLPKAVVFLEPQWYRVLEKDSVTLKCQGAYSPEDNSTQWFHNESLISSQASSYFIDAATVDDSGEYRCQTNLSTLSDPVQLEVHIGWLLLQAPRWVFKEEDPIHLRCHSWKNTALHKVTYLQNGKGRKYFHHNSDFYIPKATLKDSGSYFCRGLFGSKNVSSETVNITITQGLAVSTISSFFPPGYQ
Assay: SPR (Biacore); ratio of He/Con_3a (FcγRIIIa) to He/Con_2b (FcγRIIb)
Experimental: (§1) The heterodimerized antibodies He Abs in which one of the H chains was introduced with an alteration were assayed for their binding activities to each activating FcγR and inhibitory FcγR according to the method described in Example 4. […] The activating FcγRs in FIGS. 26, 27, 28, and 29 are FcγRIa, FcγRIIa (R), FcγRIIa (H), and FcγRIIIa, respectively.
(§2) Analysis of interaction between objective antibody and the FcγR was carried out using Biacore T100 (GE Healthcare). HBS-EP+ (GE Healthcare) was used as the running buffer, and the measurement temperature was set to 25° C. Chips produced by immobilizing the antigen peptide by the amine coupling method to a Series S Sencor Chip CM5 (GE Healthcare), or alternatively, chips produced by allowing preliminarily biotinylated antigen peptides to interact with and immobilize onto a Series S Sensor Chip SA (certified) (GE Healthcare) were used. Antibodies of interest were captured onto an antigen peptide-immobilized chip, and allowed to interact to each FcγR diluted with running buffer. To regenerate and repeatedly use the chip, the antibodies captured on the chip were washed off by reacting 10 mM glycine-HCl, pH 1.5.

He_3a/2b (IIIa/IIb) [ratio]	Binder
2.18	B1
1.27	B2
2.53	B3
1.69	B4
1.26	B5
1.53	B6
1.24	B7
1.55	B8
1.37	B9
1.32	B10
1.76	B11
1.21	B12
1.37	B13
1.21	B14
1.93	B15
1.31	B16
1.26	B17
1.27	B18
1.33	B19
1.59	B20
1.63	B21
1.41	B22
1.33	B23
1.35	B24
1.27	B25
1.77	B26

Biological target: T1, FcγRIIIa extracellular domain with …
Assay: SPR (Biacore), antibody captured, FcγR as analyte; He Ab binding / GpH7-A5/GpH7-B3/GpL16-k0 binding x 100
Experimental: as §1, §2

He/Con_3a (IIIa binding)	Binder
160 relative, control = 100	B1
151 relative, control = 100	B2
31.7 relative, control = 100	B3
160 relative, control = 100	B4
105 relative, control = 100	B5
103 relative, control = 100	B6
103 relative, control = 100	B7
75.9 relative, control = 100	B8
147 relative, control = 100	B9
125 relative, control = 100	B10
142 relative, control = 100	B11
84.6 relative, control = 100	B12
104 relative, control = 100	B13
98.2 relative, control = 100	B14
101 relative, control = 100	B15
121 relative, control = 100	B16
103 relative, control = 100	B17
134 relative, control = 100	B18
144 relative, control = 100	B19
147 relative, control = 100	B20
233 relative, control = 100	B21
207 relative, control = 100	B22
148 relative, control = 100	B23
143 relative, control = 100	B24
111 relative, control = 100	B25
124 relative, control = 100	B26

Biological target: T2, FcγRIIb extracellular domain with C-terminal His tag (human, UniProt P31994 43-217)
T2 construct: extracellular domain; also called FcgRIIb; 2b; not shown: His tag at the C terminus
T2 sequence (looked up): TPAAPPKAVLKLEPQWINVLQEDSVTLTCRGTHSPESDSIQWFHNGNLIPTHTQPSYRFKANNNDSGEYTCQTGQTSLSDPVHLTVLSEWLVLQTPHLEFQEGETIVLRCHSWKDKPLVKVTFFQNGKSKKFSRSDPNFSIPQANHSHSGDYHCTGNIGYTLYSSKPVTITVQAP
Assay: as above
Experimental: as §1, §2

He/Con_2b (IIb binding)	Binder
73.4 relative, control = 100	B1
119 relative, control = 100	B2
12.5 relative, control = 100	B3
94.8 relative, control = 100	B4
83.8 relative, control = 100	B5
67.1 relative, control = 100	B6
83.3 relative, control = 100	B7
48.9 relative, control = 100	B8
108 relative, control = 100	B9
95 relative, control = 100	B10
80.5 relative, control = 100	B11
70.1 relative, control = 100	B12
76.1 relative, control = 100	B13
81.4 relative, control = 100	B14
52.4 relative, control = 100	B15
92.5 relative, control = 100	B16
81.8 relative, control = 100	B17
105 relative, control = 100	B18
109 relative, control = 100	B19
92.8 relative, control = 100	B20
142 relative, control = 100	B21
147 relative, control = 100	B22
111 relative, control = 100	B23
106 relative, control = 100	B24
87.1 relative, control = 100	B25
70.5 relative, control = 100	B26
